Columns and labels:
[1] = molecular target: T-cell surface glycoprotein CD4 [Homo sapiens] (Homo sapiens) (UniProt P01730); experiment: cell-based or functional assay
[2] = molecular target: human T-cell receptor beta chain with variable region Vbeta 7.1 (H. sapiens rearranged TCR Vbeta 7.1) (H. sapiens); experiment: cell-based or functional assay
Chain of human T-cell receptor beta chain with variable region Vbeta 7.1 (H. sapiens rearranged TCR Vbeta 7.1) (H. sapiens) (A0A577 whole entry, form in doubt): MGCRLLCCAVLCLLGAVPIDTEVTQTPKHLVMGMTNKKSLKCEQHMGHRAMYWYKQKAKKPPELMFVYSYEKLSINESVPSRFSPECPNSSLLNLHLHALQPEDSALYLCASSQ

- CD4-positive cells remaining in the control culture (flow cytometry) [1]: 45%
- TCR Vβ7.1-positive cells remaining in the control culture (flow cytometry) [2]: 1.2%
Substance: CART20 anti-CD20 chimeric antigen receptor (scFv of anti-CD20 monoclonal antibody Leu16 in the third-generation CAR backbone), expressed on transduced human T cells
